In article PMC9482650, “Quantitative fragmentomics allow affinity mapping of interactomes” (Nature Communications, 2022):

T1: INTU, Q9ULD6
T1 sequence (Q9ULD6 180-273, limits assumed, looked up): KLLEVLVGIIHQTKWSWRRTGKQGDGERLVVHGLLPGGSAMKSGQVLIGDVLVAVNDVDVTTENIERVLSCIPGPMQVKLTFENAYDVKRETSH

T2: PDZD2_6, O15018
T2 sequence (O15018 2745-2839, limits assumed, looked up): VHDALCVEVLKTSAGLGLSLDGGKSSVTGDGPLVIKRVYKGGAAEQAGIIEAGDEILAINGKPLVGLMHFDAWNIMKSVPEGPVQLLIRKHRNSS

T3: SNTB2, Q13425
T3 sequence (Q13425 110-208, limits assumed, looked up): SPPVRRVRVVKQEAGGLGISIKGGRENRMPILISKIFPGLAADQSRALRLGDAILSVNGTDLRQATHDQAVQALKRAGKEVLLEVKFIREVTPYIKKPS

T4: PDZD7_2, Q9H5P4
T4 sequence (Q9H5P4 205-303, limits assumed, looked up): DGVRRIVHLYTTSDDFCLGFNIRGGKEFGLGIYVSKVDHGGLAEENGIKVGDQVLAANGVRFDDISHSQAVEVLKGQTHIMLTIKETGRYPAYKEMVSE

T5: SHROOM3, Q8TF72
T5 sequence (Q8TF72 20-120, limits assumed, looked up): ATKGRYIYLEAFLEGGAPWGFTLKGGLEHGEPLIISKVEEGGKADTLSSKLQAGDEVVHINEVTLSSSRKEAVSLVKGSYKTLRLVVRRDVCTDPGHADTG

T6: PARD6G, Q9BYG4
T6 sequence (Q9BYG4 153-261, limits assumed, looked up): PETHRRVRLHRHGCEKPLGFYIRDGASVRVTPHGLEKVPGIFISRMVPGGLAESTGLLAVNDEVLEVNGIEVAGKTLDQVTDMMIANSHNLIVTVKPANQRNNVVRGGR

T7: APBA3_2, O96018
T7 sequence (O96018 480-570, limits assumed, looked up): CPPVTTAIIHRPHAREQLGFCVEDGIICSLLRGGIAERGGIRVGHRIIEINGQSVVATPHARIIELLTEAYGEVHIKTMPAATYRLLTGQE

T8: PDZD8, Q8NEN9
T8 sequence (Q8NEN9 361-459, limits assumed, looked up): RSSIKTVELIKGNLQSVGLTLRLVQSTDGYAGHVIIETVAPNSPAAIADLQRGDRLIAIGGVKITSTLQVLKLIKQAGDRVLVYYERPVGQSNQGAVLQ

T9: PDZD2_1, O15018
T9 sequence (O15018 80-192, limits assumed, looked up): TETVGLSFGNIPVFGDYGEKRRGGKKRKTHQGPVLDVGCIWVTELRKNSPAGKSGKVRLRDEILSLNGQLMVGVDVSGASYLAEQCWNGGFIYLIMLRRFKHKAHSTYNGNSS

T10: NHERF3_2, Q5T2W1
T10 sequence (Q5T2W1 129-225, limits assumed, looked up): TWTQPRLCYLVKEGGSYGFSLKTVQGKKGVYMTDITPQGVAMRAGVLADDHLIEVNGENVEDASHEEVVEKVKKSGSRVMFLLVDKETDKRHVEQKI

T11: USH1C_1, Q9Y6N9
T11 sequence (Q9Y6N9 82-179, limits assumed, looked up): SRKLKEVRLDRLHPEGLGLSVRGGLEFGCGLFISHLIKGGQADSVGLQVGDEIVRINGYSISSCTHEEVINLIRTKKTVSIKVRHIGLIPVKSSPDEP

B1: HPV30-E6, P36809 (peptide)
chain: RHTTSTETAV
B2: DOCK4, Q8N1I0 (peptide)
chain: RPLPRKVSQL
B3: HPV59-E6, Q81964 (peptide)
chain: QRQARSETLV
B4: HPV18-E6, P06463 (peptide)
chain: RLQRRRETQV
B5: HPV35-E6, P27228 (peptide)
chain: SKPTRRETEV

Legend:
Test in all cases: holdup assay
Parameters in all cases: key: below the threshold = too weak to quantify, mostly under pKd 3.1 to 4
Conditions in all cases: plain residues with an end cap or a label only (N-terminal biotin on a linker: ttds)
INTU, Q9ULD6 = target: T1, INTU, Q9ULD6
RGS3, P49796-9 = target: RGS3, P49796-9
Sequence of RGS3, P49796-9 (P49796 other isoform, or with tags, fused parts or gaps): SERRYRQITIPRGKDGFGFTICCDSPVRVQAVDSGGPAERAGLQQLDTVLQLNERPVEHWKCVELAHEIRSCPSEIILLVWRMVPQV

PDZD2_6, O15018 = target: T2, PDZD2_6, O15018
PARD3B_2, Q8TEW8 = target: PARD3B_2, Q8TEW8
Sequence of PARD3B_2, Q8TEW8 (Q8TEW8 376-471): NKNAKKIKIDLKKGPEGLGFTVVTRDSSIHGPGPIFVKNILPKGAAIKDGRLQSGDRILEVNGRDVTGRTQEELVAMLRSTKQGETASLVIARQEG

PARD3_1, Q8TEW0 = target: PARD3_1, Q8TEW0
Sequence of PARD3_1, Q8TEW0 (Q8TEW0 264-372): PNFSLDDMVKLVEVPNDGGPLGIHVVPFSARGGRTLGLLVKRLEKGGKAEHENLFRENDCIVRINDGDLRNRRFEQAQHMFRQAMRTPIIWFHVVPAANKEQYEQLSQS

SDCBP_1, O00560 = target: SDCBP_1, O00560
Sequence of SDCBP_1, O00560 (O00560 111-198): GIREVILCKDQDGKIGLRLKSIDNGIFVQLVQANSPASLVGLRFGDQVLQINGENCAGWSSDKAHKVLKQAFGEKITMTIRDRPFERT

LMO7, Q8WWI1 = target: LMO7, Q8WWI1
Sequence of LMO7, Q8WWI1 (Q8WWI1 1037-1138): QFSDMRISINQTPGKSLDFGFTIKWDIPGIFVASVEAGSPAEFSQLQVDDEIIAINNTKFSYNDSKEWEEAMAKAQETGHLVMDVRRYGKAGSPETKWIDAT

Inadl_7, Q8NI35 = target: Inadl_7, Q8NI35
Sequence of Inadl_7, Q8NI35 (Q8NI35 1219-1332): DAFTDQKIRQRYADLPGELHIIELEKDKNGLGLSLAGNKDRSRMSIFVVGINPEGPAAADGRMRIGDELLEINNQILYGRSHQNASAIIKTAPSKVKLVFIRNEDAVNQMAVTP

MAGI3_3, Q5TCQ9 = target: MAGI3_3, Q5TCQ9
Sequence of MAGI3_3, Q5TCQ9 (Q5TCQ9 572-655): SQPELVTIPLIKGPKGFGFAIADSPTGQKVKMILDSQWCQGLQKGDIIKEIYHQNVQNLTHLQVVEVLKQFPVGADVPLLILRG

SNTB2, Q13425 = target: T3, SNTB2, Q13425
MAGI1_5, Q96QZ7 = target: MAGI1_5, Q96QZ7
Sequence of MAGI1_5, Q96QZ7 (Q96QZ7 986-1098): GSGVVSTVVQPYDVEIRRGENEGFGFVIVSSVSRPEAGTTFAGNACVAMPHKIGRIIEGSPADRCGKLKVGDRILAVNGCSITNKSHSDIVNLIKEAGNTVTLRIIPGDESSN

PDZD7_2, Q9H5P4 = target: T4, PDZD7_2, Q9H5P4
DLG2_1, Q15700 = target: DLG2_1, Q15700
SHROOM3, Q8TF72 = target: T5, SHROOM3, Q8TF72
MAGI3_6, Q5TCQ9 = target: MAGI3_6, Q5TCQ9
Sequence of MAGI3_6, Q5TCQ9 (Q5TCQ9 1014-1103): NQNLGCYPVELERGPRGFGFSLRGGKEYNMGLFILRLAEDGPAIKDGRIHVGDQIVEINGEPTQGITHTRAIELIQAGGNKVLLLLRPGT

PTPN13_2, Q12923 = target: PTPN13_2, Q12923
Sequence of PTPN13_2, Q12923 (Q12923 1363-1462): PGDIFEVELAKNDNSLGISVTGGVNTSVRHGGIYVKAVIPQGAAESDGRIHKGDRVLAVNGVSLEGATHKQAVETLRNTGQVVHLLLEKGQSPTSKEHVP

PREX1_1, Q8TCU6 = target: PREX1_1, Q8TCU6
Sequence of PREX1_1, Q8TCU6 (Q8TCU6 608-718): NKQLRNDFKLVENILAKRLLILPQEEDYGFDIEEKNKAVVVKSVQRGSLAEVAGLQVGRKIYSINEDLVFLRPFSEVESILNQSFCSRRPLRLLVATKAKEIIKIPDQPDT

NHERF2_1, Q15599 = target: NHERF2_1, Q15599
Sequence of NHERF2_1, Q15599 (Q15599 9-91): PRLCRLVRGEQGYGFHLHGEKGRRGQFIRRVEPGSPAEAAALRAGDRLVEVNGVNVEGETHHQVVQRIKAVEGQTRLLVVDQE

CARD14, Q9BXL6 = target: CARD14, Q9BXL6
Sequence of CARD14, Q9BXL6 (Q9BXL6 558-663): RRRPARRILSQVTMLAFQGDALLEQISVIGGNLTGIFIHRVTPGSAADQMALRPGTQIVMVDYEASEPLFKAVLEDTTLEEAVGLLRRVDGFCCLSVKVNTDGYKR

PARD6G, Q9BYG4 = target: T6, PARD6G, Q9BYG4
APBA3_2, O96018 = target: T7, APBA3_2, O96018
PDZD8, Q8NEN9 = target: T8, PDZD8, Q8NEN9
AHNAK2, Q8IVF2 = target: AHNAK2, Q8IVF2
Sequence of AHNAK2, Q8IVF2 (Q8IVF2 108-193): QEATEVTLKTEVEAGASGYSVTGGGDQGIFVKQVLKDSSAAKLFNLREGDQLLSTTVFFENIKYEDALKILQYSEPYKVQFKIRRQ

PDZD2_1, O15018 = target: T9, PDZD2_1, O15018
NHERF3_2, Q5T2W1 = target: T10, NHERF3_2, Q5T2W1
USH1C_1, Q9Y6N9 = target: T11, USH1C_1, Q9Y6N9

Row | Binder | pKd (RGS3, P49796-9) | pKd (PDZD2_6, O15018) | pKd (PARD3B_2, Q8TEW8) | pKd (PARD3_1, Q8TEW0) | pKd (SDCBP_1, O00560) | pKd (Inadl_7, Q8NI35) | pKd (MAGI1_5, Q96QZ7) | pKd (PDZD7_2, Q9H5P4) | pKd (DLG2_1, Q15700) | pKd (SHROOM3, Q8TF72) | pKd (MAGI3_6, Q5TCQ9) | pKd (PTPN13_2, Q12923) | pKd (PREX1_1, Q8TCU6) | pKd (NHERF2_1, Q15599) | pKd (PARD6G, Q9BYG4) | pKd (APBA3_2, O96018) | pKd (PDZD8, Q8NEN9) | pKd (PDZD2_1, O15018) | pKd (NHERF3_2, Q5T2W1) | pKd (USH1C_1, Q9Y6N9) | also measured
1 | B1 | below the threshold | below the threshold | below the threshold | below the threshold | below the threshold | below the threshold | 5.02 | below the threshold | 4.84 | below the threshold | below the threshold | below the threshold | below the threshold | below the threshold | below the threshold | below the threshold | below the threshold | below the threshold | below the threshold | below the threshold | pKd (INTU, Q9ULD6): below the threshold; pKd (LMO7, Q8WWI1): below the threshold; pKd (MAGI3_3, Q5TCQ9): below the threshold; pKd (SNTB2, Q13425): 4.68; pKd (CARD14, Q9BXL6): below the threshold; pKd (AHNAK2, Q8IVF2): below the threshold
2 | B2 | below the threshold | below the threshold | below the threshold | below the threshold | below the threshold | 4.45 | below the threshold | below the threshold | below the threshold | below the threshold | below the threshold | below the threshold | below the threshold | below the threshold | below the threshold | below the threshold | below the threshold | below the threshold | below the threshold | below the threshold | pKd (LMO7, Q8WWI1): below the threshold; pKd (MAGI3_3, Q5TCQ9): below the threshold; pKd (SNTB2, Q13425): below the threshold; pKd (CARD14, Q9BXL6): below the threshold; pKd (AHNAK2, Q8IVF2): below the threshold
3 | B3 | below the threshold | below the threshold | below the threshold | below the threshold | below the threshold | below the threshold | 5.41 | below the threshold | 4.52 | below the threshold | below the threshold | below the threshold | below the threshold | below the threshold | below the threshold | below the threshold | below the threshold | below the threshold | below the threshold | below the threshold | pKd (INTU, Q9ULD6): below the threshold; pKd (LMO7, Q8WWI1): below the threshold; pKd (MAGI3_3, Q5TCQ9): below the threshold; pKd (SNTB2, Q13425): below the threshold; pKd (CARD14, Q9BXL6): below the threshold; pKd (AHNAK2, Q8IVF2): below the threshold
4 | B4 | below the threshold | below the threshold | below the threshold | below the threshold | below the threshold | below the threshold | below the threshold | below the threshold | 5.11 | below the threshold | below the threshold | below the threshold | below the threshold | below the threshold | below the threshold | below the threshold | below the threshold | below the threshold | below the threshold | below the threshold | pKd (INTU, Q9ULD6): below the threshold; pKd (LMO7, Q8WWI1): below the threshold; pKd (MAGI3_3, Q5TCQ9): below the threshold; pKd (SNTB2, Q13425): 4.58; pKd (CARD14, Q9BXL6): below the threshold
5 | B5 | below the threshold | below the threshold | below the threshold | below the threshold | below the threshold | below the threshold | 4.43 | below the threshold | 4.91 | below the threshold | 3.81 | below the threshold | below the threshold | 3.77 | below the threshold | below the threshold | below the threshold | below the threshold | below the threshold | below the threshold | pKd (INTU, Q9ULD6): below the threshold
